The record followed here is US20260176358A1 (JIANGSU HENGRUI PHARMACEUTICALS, published 2026).

Read-outs that look alike come from different tables or passages of the source.

The target in assay [1] is T1, PACAP38 (UniProt P18509 132-169, biotinylated in the ELISAs).
T1 peptide (looked up): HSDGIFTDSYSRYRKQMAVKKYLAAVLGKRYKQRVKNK
Description: cell-based or functional assay.

Assay [2] deals with T1, PACAP38. Description: competition ELISA, biotinylated PACAP38 to coated PAC1-Fc. The protocol:
(§1) The plates were incubated for 1 h and washed, and a horseradish peroxidase-labeled streptavidin secondary antibody was then added. After incubation, color development was performed.

Assay [3] has as its target T1, PACAP38. Description: competition ELISA, biotinylated PACAP38 to coated VPAC1-Fc. The protocol:
as §1

Assay [4] deals with T1, PACAP38. Description: competition ELISA, biotinylated PACAP38 to coated VPAC2-Fc. The protocol:
as §1

For assay [5], the target named is T2, human CGRP (human, UniProt P06881 83-119).
T2 peptide (looked up): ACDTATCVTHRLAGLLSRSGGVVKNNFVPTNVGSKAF
Description: ELISA, coated CGRP. The protocol: (§2) In this test example, the abilities of the chimeric antibodies and humanized antibodies of C1 #, C9 #, C21 #, and C28 #to bind to human CGRP and rat CGRP were assessed using ELISAs. Plates were coated with […] human CGRP and rat CGRP, respectively, and blocked, and the antibodies, serially diluted, were then added. The plates were incubated for 1 h and washed, and a horseradish peroxidase-labeled anti-human Fc secondary antibody was then added. After incubation, color development was performed. […] The plates were incubated for 1 h and washed, and the antibodies, serially diluted, were then added. The plates were incubated for 1 h and washed, and a horseradish peroxidase-labeled streptavidin secondary antibody was then added. After incubation, color development was performed.

Assay [6] concerns the target T3, rat CGRP (rat, UniProt P01256 83-119).
T3 peptide (looked up): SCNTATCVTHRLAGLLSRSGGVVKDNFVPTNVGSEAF
Description: ELISA, coated CGRP. On the procedure:
as §2

For assay [7], the target named is CGRP. Description: cell-based or functional assay.
For assay [8], the target named is CGRP. Description: cell-based or functional assay. This is another data set of the same source.
Assay [9] addresses T3, rat CGRP. Description: SPR, Biacore 8K, antibody captured on Protein A chip, 1:1 model. On the procedure:
A Protein A biosensor chip was used to affinity-capture IgG, and a molecule sample was then allowed to flow through the surface of the chip. Reaction signals were detected in real time using a Biacore 8K system to obtain association and dissociation curves. After the dissociation in each experimental cycle was complete, the biosensor chip was washed and regenerated 3 times with 50 mM NaOH. Data fitting was performed using a 1:1 model.

Assay [10] has as its target T2, human CGRP. Description: SPR, Biacore 8K, 25 C, biotinylated antibody on SA chip, 1:1 model. On the procedure: First, the test antibodies ([…] for the mAbs and 4 μg/mL for the diabodies), biotinylated (indicated by Biotin-), were each coupled onto an SA biosensor chip. Then samples of the antigen human CGRP were sequentially injected in ascending order for 180 s, followed by dissociation. After the test was finished, fitting was performed using a 1:1 binding model.

In assay [11] the target is hIL5 (human, UniProt P05113 20-134). Description: method of Test Example 4 of WO2021139758.
The target of assay [12] is hTSLP (human, UniProt Q969D9 29-159). Description: method of Test Example 4 of WO2021139758.
For assay [13], the target named is T1, PACAP38. Description: cell-based or functional assay.
Assay [14] addresses T1, PACAP38. Description: ELISA, antibody on coated anti-human Fc, biotinylated peptide. The protocol:
(§3) Plates were coated with 1 μg/mL anti-human Fc and blocked, and the antibodies, serially diluted, were added. […] The plates were incubated for 1 h and washed, and a horseradish peroxidase-labeled streptavidin secondary antibody was then added. After incubation, color development was performed.

Assay [15] has as its target T4, PACAP27 (UniProt P18509 132-158, biotinylated in the ELISAs).
T4 peptide (looked up): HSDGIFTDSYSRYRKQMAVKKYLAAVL
The assay is described as above. On the procedure:
as §3

B1: P96H1L1 (antibody, human IgG1, kappa, V domains shown)
VH: EVQLVQSGAEVKKPGATVKISCKASGFNIKDYYMHWVQQAPGKGLEWMGWIDPENDNTLYDPKFQDRVTITTDTSTNTAYMELSSLRSEDTAVYYCVFGVMTTVEGDFDYWGQGTTVTVSS
VL: ETVVTQEPSLTVSPGGTVTLTCRSSSGTVTTSNYANWVQQKPGQAFRGLIGGTNNRAPGAPARFSGSLLGGKAALTLSGVQPEDEAEYYCALWYSNHWVFGGGTKLTVLR
Consider B1, for which the “IC50, inhibition of cAMP production in SH-SY5Y cells” value (shortened to “IC50, inhibition … in SH-SY5Y cells”) in [1] came out at 1.79 nM. In addition, the IC50 in assay [2] is 0.76 nM; in [3] it was 0.53 nM; in assay [4], 0.61 nM.

B2: C21H2L1 (antibody, human IgG1, kappa, V domains shown)
VH: EVQLVQSGAEVKKPGASVKVSCKASGYTFTDYYMNWVRQAPGQRLEWIGDINPNQGGTNYNQKFKGRATLTVDKSASTAYMELSSLRSEDTAVYYCASIIIVPNYFDYWGQGTTVTVSS
VL: DIQMTQSPSSLSASVGDRVTITCKASQNVDTNVAWFQQKPGKAPKSLIYSASYRYSGVPSRFSGSGSGTDFTLTISSLQPEDFATYYCQQYNNYPYTFGGGTKVEIKR
notes: also called Biotin-C21H2L1
For the molecule B2, the values for the concentration for a half-maximal effect (EC50) in assay [5] and in assay [6] were 2.3 nM and 4.26 nM, respectively. Besides, the “IC50, inhibition of cAMP production in SK-N-MC cells” value (shortened to “IC50, inhibition … in SK-N-MC cells”) in [7] was 1.25 nM; in assay [8], 1.98 nM. For the same molecule, the Kd came to 0.103 nM in [9] and 0.00381 nM in assay [10]. For the same molecule, the koff in assay [9] turned out to be 0.000232 s⁻¹; in assay [10], 1.92e-05 s⁻¹. Further, the kon is 2.25e+06 M⁻¹ s⁻¹ in [9] and 5.04e+06 M⁻¹ s⁻¹ in [10].

B3: C28H6L1 (antibody, human IgG1, kappa, V domains shown)
VH: EVQLVQSGAEVKKPGASVKVSCKASGYTFTDYYMNWVRQAPGQRLEWMGDINPNTGVTTYNQKFKGRVTITVDKSASTAYMELSSLRSEDTAVYYCASIIIVPDYFDYWGQGTTVTVSS
VL: DIQMTQSPSSVSASVGDRVTITCKASQNVGSNVAWYQQKPGKSPKALIYSASYRYSGVPSRFSGSGSGTDFTLTISSLQPEDFATYYCQQYNSYPYTFGGGTKVEIKR
notes: also called Biotin-C28H6L1
As for B3, the figures for the EC50 in assay [5] and in [6] were 1.26 nM and 5.29 nM, respectively. Besides, the “IC50, inhibition … in SK-N-MC cells” value in assay [7] came out at 2.49 nM; in [8], 1.61 nM. In addition, the figures for the Kd in assay [9] and in [10] were 0.0674 nM and 0.00479 nM, respectively. Moreover, the koff is 0.000139 s⁻¹ in assay [9] and 2.41e-05 s⁻¹ in assay [10]. Moreover, the kon was 2.06e+06 M⁻¹ s⁻¹ in [9] and 5.03e+06 M⁻¹ s⁻¹ in assay [10].

B4: HJ-11 (bispecific antibody)
chain 1: not shown
chain 2: DIQMTQSPSSVSASVGDRVTITCRASQDIANYLSWYQQKPGKSPKLLIYGTSNLEVGVPSRFSGSRSGTDFTLTISSLQPEDFATYYCLQDKEFPRTFGGGTKVEIKRTVASSGCPRFLTRPKASVVSVGKDATLSCQIVGNPFPQVSWEKDKQPVTAGVRFRLAQDGDLYRLKILDLQLSDSGQYVCRARNAHGEAFACLGLQVDAEA
chain 3: EVQLVQSGAEVKKPGSSVKVSCKASGYTFSNYLIEWVRQAPGQGLEWIGVIDPGVGDTNYNENFKGRATLTADKSTSTAYIELSSLRSEDTAVYYCAREDNTGTAFDYWGQGTTVTVSSASTKGPSVFPLAPSSKSTSGGTAALGCLVKDYFPEPVTVSWNSGALTSGVHTFPAVLQSSGLYSLSSVVTVPSSSLGTQTYICNVNHKPSNTKVDKKVEPKSCDKTHTCPPCPAPEAAGGPSVFLFPPKPKDTLMISRTPEVTCVVVDVSHEDPEVKFNWYVDGVEVHNAKTKPREEQYNSTYRVVSVLTVLHQDWLNGKEYKCKVSNKALPAPIEKTISKAKGQPREPQVCTLPPSREEMTKNQVSLSCAVKGFYPSDIAVEWESNGQPENNYKTTPPVLDSDGSFFLVSKLTVDKSRWQQGNVFSCSVMHEALHNHYTQKSLSLSPGK
chain 4: SIVMTQTPLSLSVTPGQPASISCKASQSVSSDVTWYLQKPGQSPQLLIYYVSEHYTGVPDRFSGSGYGTDFTLKISRVEAEDVGVYYCQQHHRFPLTFGQGTKLEIKRTVAAPSVFIFPPSDEQLKSGTASVVCLLNNFYPREAKVQWKVDNALQSGNSQESVTEQDSKDSTYSLSSTLTLSKADYEKHKVYACEVTHQGLSSPVTKSFNRGEC
On to B4, for which the EC50 in assay [11] was determined as 9.46 nM; in [12], 3 nM.

B5: P96#-CHI (antibody, human IgG1, kappa, V domains shown)
VH: EVQLQQSGADLVRPGALVKLSCKASGFNIKDYYMHWVKQRPEQGLEWIGWIDPENGNTLYDPKFQDKASITTDTSSNTAYLQLSSLTSEDTAVYYCVFGVMTTVEGDFDYWGQGTALTVSS
VL: QAVVTQESALTTSPGETVTLTCRSSSGTVTTSNYANWVQEKPDHLFTGLIGGTNNRAPGAPARFSGSLIGDKAALTITGAQTEDEAIYFCALWYSNHWVFGGGTKLTVLR
notes: chimeric: murine variable regions fused to human constant regions; also called P96#-CH1
As to B5, the “IC50, inhibition … in SH-SY5Y cells” value in assay [1] is 8.26 nM. Also, the IC50 stood at 0.83 nM in assay [2], 0.53 nM in assay [3] and 0.68 nM in assay [4].

B6: CP-1 (bispecific antibody)
heavy: EVQLVESGGGLVQPGGSLRLSCAASGFAFNNYDMSWVRQAPGKGLEWVATITGGGSYTWYPDSVKGRFTISRDNAKNSLYLQMNSLRAEDTAVYYCARLTGYDQAGAMDYWGQGTTVTVSSASTKGPSVFPLAPSSKSTSGGTAALGCLVKDYFPEPVTVSWNSGALTSGVHTFPAVLQSSGLYSLSSVVTVPSSSLGTQTYICNVNHKPSNTKVDKKVEPKSCEVQLVQSGAEVKKPGASVKVSCKASGYTFTDYYMNWVRQAPGQCLEWIGDINPNQGGTNYNQKFKGRATLTVDKSASTAYMELSSLRSEDTAVYYCASIIIVPNYFDYWGQGTTVTVSSGGGGSGGGGSGGGGSDIQMTQSPSSLSASVGDRVTITCKASQNVDTNVAWFQQKPGKAPKSLIYSASYRYSGVPSRFSGSGSGTDFTLTISSLQPEDFATYYCQQYNNYPYTFGCGTKVEIKGGGDKTHTCPPCPAPELLGGPSVFLFPPKPKDTLYITREPEVTCVVVDVSHEDPEVKFNWYVDGVEVHNAKTKPREEQYNSTYRVVSVLTVLHQDWLNGKEYKCKVSNKALPAPIEKTISKAKGQPREPQVYTLPPSRDELTKNQVSLTCLVKGFYPSDIAVEWESNGQPENNYKTTPPVLDSDGSFFLYSKLTVDKSRWQQGNVFSCSVMHEALHNHYTQKSLSLSPGK
light: DIVLTQSPDSLAVSLGERATINCKASQSVDYDGDSYMTWYQQKPGQPPKLLIYAASHLDSGIPDRFSGSGSGTDFTLTISSLQAEDVAVYYCQQSNEDPWTFGGGTKVEIKRTVAAPSVFIFPPSDEQLKSGTASVVCLLNNFYPREAKVQWKVDNALQSGNSQESVTEQDSKDSTYSLSSTLTLSKADYEKHKVYACEVTHQGLSSPVTKSFNRGEC
notes: Format 2+2, anti-PACAP Fab (P14H2L3) and anti-CGRP scFv (C21H5L3), IgG1 (YTE) Fc; also called Biotin-CP-1
For the molecule B6, the “IC50, inhibition … in SK-N-MC cells” value in assay [8] is 2.66 nM. In addition, the “IC50, inhibition … in SH-SY5Y cells” value in assay [13] stood at 4.31 nM. Further, the EC50 in [14] turned out to be 0.15 nM; in assay [15], 0.28 nM. The Kd in assay [9] stood at 0.778 nM; in assay [10], 0.00715 nM. The koff in [9] was determined as 0.00116 s⁻¹; in assay [10], 1.77e-05 s⁻¹. Further, the kon in assay [9] stood at 1.5e+06 M⁻¹ s⁻¹; in [10], 2.48e+06 M⁻¹ s⁻¹.
